According to publication PMC4894380:

Biological target: MqsA (Escherichia coli (strain of the protein …, UniProt Q46864 1-131))
Experiment: EMSA; shift at 50-, 100- and 200-fold excess MqsA; 10 mM Tris-HCl pH 7.5, 50 mM KCl, 1 mM DTT, 1 ug poly(dI.dC), 30-50 fmol labeled probe, ambient temperature, 1 h; 6% gel, 0.5x TBE

MqsA (Escherichia coli, sequence (Q46864 whole entry): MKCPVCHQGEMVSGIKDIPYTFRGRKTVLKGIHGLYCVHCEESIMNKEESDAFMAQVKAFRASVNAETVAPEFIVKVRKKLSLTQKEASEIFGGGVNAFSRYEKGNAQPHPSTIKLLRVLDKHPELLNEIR

B1: p-csgD native palindrome 30-mer (dsDNA)
DNA 1: ACTTAATAAAACCTTAAGGTTAACATTTTA
DNA 2: TAAAATGTTAACCTTAAGGTTTTATTAAGT
B1: binds.
